Assay [1] has as its target T1, human B7H3 on HEK293F cells (human, UniProt Q5ZPR3 29-534).
T1 construct: whole, on cells
T1 sequence (looked up): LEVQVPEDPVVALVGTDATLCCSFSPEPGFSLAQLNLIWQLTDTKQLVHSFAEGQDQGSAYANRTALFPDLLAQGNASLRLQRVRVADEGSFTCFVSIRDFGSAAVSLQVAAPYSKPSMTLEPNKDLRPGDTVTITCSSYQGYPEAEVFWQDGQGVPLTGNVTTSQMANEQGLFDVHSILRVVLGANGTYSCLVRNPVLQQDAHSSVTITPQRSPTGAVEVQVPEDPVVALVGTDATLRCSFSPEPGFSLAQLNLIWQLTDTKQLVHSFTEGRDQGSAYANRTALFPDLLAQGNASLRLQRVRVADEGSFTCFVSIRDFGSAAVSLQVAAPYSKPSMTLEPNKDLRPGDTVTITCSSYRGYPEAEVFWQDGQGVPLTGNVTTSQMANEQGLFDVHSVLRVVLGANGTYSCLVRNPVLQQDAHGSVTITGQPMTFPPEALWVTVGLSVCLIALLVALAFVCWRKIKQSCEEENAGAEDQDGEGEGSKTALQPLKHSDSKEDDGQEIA
As to the kind of experiment: flow cytometry, transfected HEK293F cells, 100 nM antibody [Cont.]. Here is the method:
(§1) Antibody selectivity was next examined. Human CTLA4, PD1, LAG3, Tim3, B7H3, CD95, TNFR1, OX40, CD40, PD-L1, BLTA, VISTA, PDL2, ICOS and B7H4 were transiently overexpressed on the surface of HEK293F cells. Transfected cells were washed in pre-chilled 1×PBSA buffer (1.76 mM KH2PO4, 10.14 mM Na2HPO4.12H2O, 2.68 mM KCl, 136.89 mM NaCl and 1% BSA), then incubated with 100 nM test antibodies for 1 hour on ice. Cells were washed once with staining buffer, and Alexa Fluor® 647 conjugated mouse anti-human FC antibodies were added and incubated for 30 minutes on ice, protected from light. Samples were washed once with staining buffer prior to analysis by flow cytometry.
In general terms: Flow cytometry measures light scatter and fluorescence of single cells or particles in a stream.

Assay [2] addresses T2, full-length mouse CTLA4 expressed on HEK293F cells (mouse, UniProt P09793 36-223).
T2 construct: whole, on cells
As to the kind of experiment: flow cytometry, transfected HEK293F cells, antibody concentration not given. The protocol: The affinities of the antibodies were also assessed against human and mouse CTLA4 transiently expressed on the surface of HEK293F cells (FIG. 2). Briefly, HEK293F cells were transfected with a plasmid expressing full-length human, monkey or mouse CTLA4 from a bicistronic IRES vector also encoding EGFP, and EGFP expression was used to identify the transfected cells. After 48 hours, the mammalian cell suspension (2×10⁵/well) was transferred to an Eppendorf tube, centrifuged, the supernatant was discarded, the cells were resuspended with 1 mL PBSA (to a density is 4×10⁶ cells/mL), and added to a 96 well plate. […] The cells were then washed once prior to analysis by flow cytometry (Beckman® CytoFlex).

Assay [3] deals with T3, human CD95 on HEK293F cells (human, UniProt P25445 26-335).
T3 construct: whole, on cells
T3 sequence (looked up): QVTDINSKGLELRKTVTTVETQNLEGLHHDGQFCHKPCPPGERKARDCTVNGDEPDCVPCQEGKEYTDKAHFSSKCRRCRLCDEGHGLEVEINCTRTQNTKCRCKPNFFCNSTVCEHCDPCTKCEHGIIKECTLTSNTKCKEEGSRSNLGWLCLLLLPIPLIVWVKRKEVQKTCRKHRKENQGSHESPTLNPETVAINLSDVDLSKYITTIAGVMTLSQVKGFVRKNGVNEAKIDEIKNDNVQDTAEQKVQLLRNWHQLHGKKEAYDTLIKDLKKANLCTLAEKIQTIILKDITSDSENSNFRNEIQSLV
As to the kind of experiment: flow cytometry, transfected HEK293F cells. The protocol: as §1

The target in assay [4] is T4, human TNFR1 on HEK293F cells (human, UniProt P19438 30-455).
T4 construct: whole, on cells; also called CD120a
T4 sequence (looked up): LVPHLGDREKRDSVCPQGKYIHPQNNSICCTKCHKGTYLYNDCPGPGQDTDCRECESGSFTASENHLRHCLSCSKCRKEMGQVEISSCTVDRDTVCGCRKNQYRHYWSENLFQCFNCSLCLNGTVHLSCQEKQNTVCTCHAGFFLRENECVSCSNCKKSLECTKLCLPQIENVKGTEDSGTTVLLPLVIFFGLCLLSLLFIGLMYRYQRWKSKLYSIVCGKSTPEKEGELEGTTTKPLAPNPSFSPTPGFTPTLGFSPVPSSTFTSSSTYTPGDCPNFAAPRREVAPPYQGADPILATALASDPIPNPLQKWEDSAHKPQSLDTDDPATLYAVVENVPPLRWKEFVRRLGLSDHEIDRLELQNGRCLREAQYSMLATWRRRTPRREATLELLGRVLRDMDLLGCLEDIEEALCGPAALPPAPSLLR
As to the kind of experiment: flow cytometry, transfected HEK293F cells. The protocol: as §1

For assay [5], the target named is T5, human OX40 on HEK293F cells (human, UniProt P43489 29-277).
T5 construct: whole, on cells
T5 sequence (looked up): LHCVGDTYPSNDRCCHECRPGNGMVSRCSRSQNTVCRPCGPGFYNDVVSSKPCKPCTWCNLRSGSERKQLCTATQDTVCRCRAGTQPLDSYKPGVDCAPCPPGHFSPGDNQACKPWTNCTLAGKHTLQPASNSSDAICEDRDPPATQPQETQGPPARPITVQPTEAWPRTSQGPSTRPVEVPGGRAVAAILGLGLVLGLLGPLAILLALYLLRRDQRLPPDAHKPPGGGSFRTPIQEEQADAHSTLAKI
As to the kind of experiment: flow cytometry, transfected HEK293F cells. The protocol:
as §1

Assay [6] addresses T1, human B7H3 on HEK293F cells. As to the kind of experiment: flow cytometry, transfected HEK293F cells. The protocol:
as §1

Assay [7] has as its target T6, human Tim3 on HEK293F cells (human, UniProt Q8TDQ0 22-301).
T6 construct: whole, on cells
T6 sequence (looked up): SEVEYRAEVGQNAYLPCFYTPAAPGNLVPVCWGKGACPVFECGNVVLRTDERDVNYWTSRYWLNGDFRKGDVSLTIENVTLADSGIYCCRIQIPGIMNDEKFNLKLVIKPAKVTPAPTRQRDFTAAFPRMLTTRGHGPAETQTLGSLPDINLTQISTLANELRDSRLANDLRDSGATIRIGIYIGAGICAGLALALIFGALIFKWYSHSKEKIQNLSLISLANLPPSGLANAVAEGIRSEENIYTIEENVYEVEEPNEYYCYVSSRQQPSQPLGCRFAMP
As to the kind of experiment: flow cytometry, transfected HEK293F cells. The protocol: as §1

Assay [8] deals with T4, human TNFR1 on HEK293F cells. Kind of assay: flow cytometry, transfected HEK293F cells, 100 nM antibody [Cont.]. The protocol:
as §1

B1: TY21687 (antibody, V domains shown)
VH: EVQLVESGGGLVQPGGSLRLSCAASGFTFSGYAIHWVRQAPGKGLEWIGIISPSGGGTKYAQKFQGRVTISRDNSKNTLYLQLNSLRAEDTAVYYCARHPFAYWGQGTLVTVSS
VL: DIQLTQSPSSLSASVGDRVTITCRASQSVDFYGISFLDWYQQKPGKAPKLLIYDASNRATGIPSRFSGSGSGTDFTLTISSLQPEDFATYYCQQYVSSPPEYTFGQGTKVEIK
notes: human IgG1 (hIgG1) from Fab hit B15700
As to B1, the “% of cells in upper right quadrant (Q2)” value in assay [1] is 1.29%.

B2: TY21585 (antibody, V domains shown)
VH: EVQLVESGGGLVQPGGSLRLSCAASGFTFSDYAIHWVRQAPGKGLEWIGIISPSSGSTNYAQKFQGRVTISRDNSKNTLYLQLNSLRAEDTAVYYCARDIHSGSSGYYYGFDVWGQGTLVTVSS
VL: DIQLTQSPSSLSASVGDRVTITCRASESVDFFGISFLAWYQQKPGKAPKLLIYDASNRATGIPSRFSGSGSGTDFTLTISSLQPEDFATYYCQHYTSSPPVYTFGQGTKVEIK
notes: human IgG1 (hIgG1) from Fab hit B15709
Regarding B2, the “% of cells in upper right quadrant (Q2)” value in assay [2] stood at 30.8%. In addition, the binding result in assay [3], in assay [4] and in assay [5] was “no binding (tested: 100 nM)” in each case.

B3: TY21691 (antibody, V domains shown)
VH: EVQLVESGGGLVQPGGSLRLSCAASGFTFSDYAIHWVRQAPGKGLEWIGIISPSGGSTKYAQKFQGRVTISRDNSKNTLYLQLNSLRAEDTAVYYCARLGYGYFDVWGQGTLVTVSS
VL: DIQLTQSPSSLSASVGDRVTITCRASQSVDFYGISFLHWYQQKPGKAPKLLIYDASSLESGVPSRFSGSGSGTDFTLTISSLQPEDFATYYCVQALQLPLTFGQGTKVEIK
notes: human IgG1 (hIgG1) from Fab hit B15736
On to B3, for which the binding result in assay [6] and in assay [7] was “no binding (tested: 100 nM)” in each case.

B4: TY21591 (antibody, V domains shown)
VH: EVQLVESGGGLVQPGGSLRLSCAASGFSLSTGGVAVSWIRQAPGKGLEWIGEIYHSGSTYYSPSLKSRVTISRDNSKNTLYLQLNSLRAEDTAVYYCARRIATATYFDYWGQGTLVTVSS
VL: DIQLTQSPSSLSASVGDRVTITCRASQTVFSRYLAWYQQKPGKAPKLLIYDASNRATGIPSRFSGSGSGTDFTLTISSLQPEDFATYYCQQSYYWPPWTFGQGTKVEIK
notes: human IgG1 (hIgG1) from Fab hit B15756
Turning to B4, in assay [8], the “% of cells in upper right quadrant (Q2)” value was found to be 0.33 and the “Mean” value worked out at 6490.

Values taken from patent publication US20190241662A1 (ADAGENE, published 2019).
